According to the emibetuzumab library of Makowski et al. (2022):

B1: VH:VL chains; a variant is named by its letters at X, in order (parent)
chain 1: QVQLVQSGAEVKKPGASVKVSCKASGYTFTDYXMHWVRQAPGQGLEWMGXVNPNXXXTTYNQKFEGRVTMTTDTSTSTAYMELRSLRSDDTAVYYCARXNXLDXWGQGTTVTVSS
chain 2: DIQMTQSPSSLSASVGDRVTITCSVSSSVSSIYLHWYQQKPGKAPKLLIYSTSNLASGVPSRFSGSGSGTDFTLTISSLQPEDFATYYCQVYSGYPLTFGGGTKVEIK

Variants of: B1
Experiment: yeast display scFab, FACS + sequencing
How it was run: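 The non-specific binding call was based on sorted and sequenced yeast displaying a heavy-chain CDR mutant scFab library. Labelling used anti-Myc with biotinylated ovalbumin (260 μg/mL in PBSB, 3 h, room temperature) or soluble membrane proteins (130 μg/mL, 20 min on ice), and FACS collected the top 25% and bottom 10% of binders in two replicates. Positive meant present in ≥3 of 4 pooled positive samples and in no negatives, and negative meant the converse.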

| Variant | non-specific binding call |
| --- | --- |
| FRTKGAWV | binds |
| FRTKGSGD | binds |
| YRTKGSGV | binds |
| ARTKGSGY | binds |
| FRTKSDLA | no binding |
| VRTRAAVD | binds |
| YRTRAAWD | binds |
| VRTRASVD | binds |
| FRTRDAAA | binds |
| SRTRDAGD | no binding |
| FRTRDAGD | no binding |
| YRTRDAGY | no binding |
| FRTRDALD | binds |
| YRTRDALV | no binding |
| YRTRDAWV | binds |
| YRTRDDLY | no binding |
| YRTRDDVV | no binding |
| YRTRDDVY | no binding |
| FRTRDFLV | binds |
| FRTRDSAA | binds |
| YRTRDSAS | no binding |
| YRTRDSGV | binds |
| FRTRDSGY chain 1 V68I | binds |

| Variant | non-specific binding call |
| --- | --- |
| FRTRDSLD | binds |
| YRTRDSLD | no binding |
| FRTRDSSS | binds |
| YRTRDSVA | no binding |
| YRTRDSVD | binds |
| FRTRDVGF | binds |
| YRTRDVGF | binds |
| FRTRGAAA | binds |
| YRTRGAAA | binds |
| YRTRGAGA | binds |
| YRTRGAGD | binds |
| YRTRGAGV | binds |
| YRTRGALA | binds |
| VRTRGALS | binds |
| YRTRGALS | binds |
| YRTRGASD | binds |
| VRTRGAVD | binds |
| YRTRGAVD | binds |
| FRTRGAVV | binds |
| YRTRGAWA | binds |
| YRTRGAWF | binds |
| VRTRGDGA | binds |
| SRTRGFGS | binds |

| Variant | non-specific binding call |
| --- | --- |
| SRTRGFVV | binds |
| YRTRGSGF | binds |
| VRTRGSGV | binds |
| YRTRGSGY | binds |
| YRTRGSLY | binds |
| FRTRGSSD | binds |
| VRTRGSSS | binds |
| YRTRGSWD | binds |
| VRTRGSWD | binds |
| FRTRGVGA | binds |
| YRTRGYAV | binds |
| VRTRGYLA | binds |
| YRTRSAAA | binds |
| YRTRSAAV | binds |
| YRTRSAGA | binds |
| YRTRSAGD | binds |
| YRTRSAGV | binds |
| YRTRSAVV | binds |
| YRTRSAVY | binds |
| YRTRSAWD | binds |
| VRTRSFGA | binds |
| YRTRSSAV | binds |
| YRTRSSGA | binds |

| Variant | non-specific binding call |
| --- | --- |
| FRTRSSGV | binds |
| VRTRSSGV | binds |
| FRTRSSLA | binds |
| VRTRSSLD | binds |
| YRTRSSVS | binds |
| YRTRSSWD | binds |
| ARTRTAWY | binds |
| DRTTNAGD | no binding |
| YTAAADLV | binds |
| STAEDDWV | no binding |
| VTAEDFGV | no binding |
| DTAEDFGV | no binding |
| STAEDFVV | no binding |
| STAESDGA | no binding |
| DTAESDLD | no binding |
| STAESDLD | no binding |
| STAESDVA | no binding |
| STAESSSF | no binding |
| VTAESSSF | no binding |
| DTAESSSF | no binding |
| DTAGDAAV | no binding |
| VTAGDAGD | no binding |
| DTAGDAVV | no binding |

| Variant | non-specific binding call |
| --- | --- |
| VTAGDDAV | no binding |
| VTAGDDGS | no binding |
| VTAGDDGV | no binding |
| VTAGDDVA | no binding |
| VTAGDDVY | no binding |
| VTAGDSAD | no binding |
| FTAGGAAD | binds |
| ATAGSAAV | no binding |
| YTAGSALV | no binding |
| ATAGSASD | no binding |
| STAGSASD | no binding |
| VTAGSDAV | no binding |
| YTAGSDGA | no binding |
| ATAGSDGV | no binding |
| YTAGSDGV | no binding |
| YTAGSDVA | no binding |
| YTAGSDWY | no binding |
| YTARDVGV | binds |
| YTARGSAA | binds |
| YTARGVSF | binds |
| FTARSAGF | binds |
| STATADVA | no binding |
